Here are results for two proteins from publication PMC9462685 (Science Advances, 2022).

The data set deals with the molecule itself. In words: SEC. (In gel filtration, larger molecules generally elute earlier.)

B1: Sr35^R157A (receptor)
chain: MEIAMGAIGSLLPKLGELLIGEITLEKKVRKGIESLITELKLMQAVLSKVSKVPADQLDEGVKIWAGNVKELSYQMEDIVDAFMVRVGDGGESTNPKNRVKKILKKVKKLFKNGKDLHRISAALEEVVLQAKQLAELRQRYEQEMRDTSANTSVDPAMMALYTDVTELVGIEETRDKLINMLTEGDDWSKHPLKTISIVGFGGLGKTTLAKAAYDKIKVQFDCGAFVSVSRNPEMKKVLKDILYGLDKVKYENIHNAARDEKYLIDDIIEFLNDKRYLIVIDDIWNEKAWELIKCAFSKKSPGSRLITTTRNVSVSEACCSSEDDIYRMEPLSNDVSRTLFCKRIFSQEEGCPQELLKVSEEILKKCGGVPLAIITIASLLANKGHIKAKDEWYALLSSIGHGLTKNRSLEQMKKILLFSYYDLPSYLKPCLLYLSIFPEDREIRRARLIWRWISEGFVYSEKQDISLYELGDSYFNELVNRSMIQPIGIDDEGKVKACRVHDMVLDLICSLSSEENFVTILDDPRRKMPNSESKVRRLSIQNSKIDVDTTRMEHMRSVTVFSDNVVGKVLDISRFKVLRVLDLEGCHVSDVGYVGNLLHLRYLGLKGTHVKDLPMEIGKLQFLLTLDLRGTKIEVLPWSVVQLRRLMCLYVDYGMKLPSGIGNLTFLEVLDDLGLSDVDLDFVKELGRLTKLRVLRLDFHGFDQSMGKALEESISNMYKLDSLDVFVNRGLINCLSEHWVPPPRLCRLAFPSKRSWFKTLPSWINPSSLPLLSYLDITLFEVRSEDIQLLGTLPALVYLEIWNYSVFEEAHEVEAPVLSSGAALFPCATECRFIGIGAVPSMFPQGAAPRLKRLWFTFPAKWISSENIGLGMRHLPSLQRVVVDVISEGASREEADEAEAALRAAAEDHPNRPILDIW
As to B1, the binding result is “binds”.

B2: Sr35^Δ20 (domain or fragment)
chain: GEITLEKKVRKGIESLITELKLMQAVLSKVSKVPADQLDEGVKIWAGNVKELSYQMEDIVDAFMVRVGDGGESTNPKNRVKKILKKVKKLFKNGKDLHRISAALEEVVLQAKQLAELRQRYEQEMRDTSANTSVDPRMMALYTDVTELVGIEETRDKLINMLTEGDDWSKHPLKTISIVGFGGLGKTTLAKAAYDKIKVQFDCGAFVSVSRNPEMKKVLKDILYGLDKVKYENIHNAARDEKYLIDDIIEFLNDKRYLIVIDDIWNEKAWELIKCAFSKKSPGSRLITTTRNVSVSEACCSSEDDIYRMEPLSNDVSRTLFCKRIFSQEEGCPQELLKVSEEILKKCGGVPLAIITIASLLANKGHIKAKDEWYALLSSIGHGLTKNRSLEQMKKILLFSYYDLPSYLKPCLLYLSIFPEDREIRRARLIWRWISEGFVYSEKQDISLYELGDSYFNELVNRSMIQPIGIDDEGKVKACRVHDMVLDLICSLSSEENFVTILDDPRRKMPNSESKVRRLSIQNSKIDVDTTRMEHMRSVTVFSDNVVGKVLDISRFKVLRVLDLEGCHVSDVGYVGNLLHLRYLGLKGTHVKDLPMEIGKLQFLLTLDLRGTKIEVLPWSVVQLRRLMCLYVDYGMKLPSGIGNLTFLEVLDDLGLSDVDLDFVKELGRLTKLRVLRLDFHGFDQSMGKALEESISNMYKLDSLDVFVNRGLINCLSEHWVPPPRLCRLAFPSKRSWFKTLPSWINPSSLPLLSYLDITLFEVRSEDIQLLGTLPALVYLEIWNYSVFEEAHEVEAPVLSSGAALFPCATECRFIGIGAVPSMFPQGAAPRLKRLWFTFPAKWISSENIGLGMRHLPSLQRVVVDVISEGASREEADEAEAALRAAAEDHPNRPILDIW
With B2, the binding result is reported as “binds”.
